# The supplement of paper PMC9112550, “Optimization of the antimicrobial peptide Bac7 by deep mutational scanning” (BMC Biology, 2022)
# Test system: Escherichia coli TOP10
# Assay: shrunken log2 fold change of peptide-encoding DNA abundance (4.5 h post-induction vs induction); higher = less antimicrobial activity (less host growth inhibition)
# Conditions: time post-induction: 4.5 h; library: site-saturation at positions 5, 18, 19, 20
# 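Note: peptides expressed intracellularly from a pBAD plasmid library in pooled LB shake-flask culture, induced with 0.3% L-arabinose, DNA abundance read by NGS, three biological replicates, DESeq2 with apeglm shrinkage.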
row,Sequence,shrunken log2 fold change
1,RRIRARPPRLPRPRPRPHWVPRP,0.0153
2,RRIRWRPPRLPRPRPRPMLFPRP,-0.00681
3,RRIRGRPPRLPRPRPRPCSSPRP,-0.129
4,RRIRFRPPRLPRPRPRPTSTPRP,-0.0598
5,RRIRNRPPRLPRPRPRPGAYPRP,-0.00116
6,RRIRCRPPRLPRPRPRPWPVPRP,0.215
7,RRIRFRPPRLPRPRPRPLCGPRP,-0.154
8,RRIRSRPPRLPRPRPRPTTQPRP,0.22
9,RRIRYRPPRLPRPRPRPPMTPRP,-0.456
10,RRIRFRPPRLPRPRPRPVSTPRP,-0.476
11,RRIRFRPPRLPRPRPRPWIAPRP,-0.0534
12,RRIRVRPPRLPRPRPRPMHWPRP,0.253
13,RRIRQRPPRLPRPRPRPGHKPRP,-0.00306
14,RRIRVRPPRLPRPRPRPLPNPRP,-0.0957
15,RRIRWRPPRLPRPRPRPPGIPRP,0.41
16,RRIRQRPPRLPRPRPRPLDNPRP,-0.151
17,RRIRLRPPRLPRPRPRPWMGPRP,-0.363
18,RRIRGRPPRLPRPRPRPVSSPRP,0.0973
19,RRIRTRPPRLPRPRPRPRKHPRP,-0.166
20,RRIRCRPPRLPRPRPRPHIGPRP,0.000633

row,Sequence,shrunken log2 fold change
1,RRIRIRPPRLPRPRPRPQCTPRP,-0.769
2,RRIRYRPPRLPRPRPRPSQAPRP,-0.0185
3,RRIRSRPPRLPRPRPRPLSGPRP,-0.0801
4,RRIRTRPPRLPRPRPRPDMSPRP,-0.0305
5,RRIRGRPPRLPRPRPRPGKRPRP,0.249
6,RRIRWRPPRLPRPRPRPHLQPRP,0.103
7,RRIRQRPPRLPRPRPRPTMRPRP,0.86
8,RRIRFRPPRLPRPRPRPPKLPRP,0.0996
9,RRIRQRPPRLPRPRPRPACCPRP,0.162
10,RRIRPRPPRLPRPRPRPKCCPRP,0.228
11,RRIRERPPRLPRPRPRPDMPPRP,-0.447
12,RRIRYRPPRLPRPRPRPSSIPRP,-0.141
13,RRIRDRPPRLPRPRPRPNKPPRP,-0.0743
14,RRIRQRPPRLPRPRPRPAPCPRP,0.222
15,RRIRRRPPRLPRPRPRPQACPRP,0.0222
16,RRIRRRPPRLPRPRPRPCFHPRP,-0.00606
17,RRIRFRPPRLPRPRPRPAKMPRP,0.207
18,RRIRRRPPRLPRPRPRPFWTPRP,0.00443
19,RRIRFRPPRLPRPRPRPNALPRP,-0.347
20,RRIRDRPPRLPRPRPRPVVLPRP,0.268

row,Sequence,shrunken log2 fold change
1,RRIRTRPPRLPRPRPRPDEMPRP,-0.023
2,RRIRRRPPRLPRPRPRPMTMPRP,0.0735
3,RRIRIRPPRLPRPRPRPADMPRP,-0.0222
4,RRIRIRPPRLPRPRPRPLAHPRP,-0.379
5,RRIRMRPPRLPRPRPRPVGQPRP,-0.00911
6,RRIRMRPPRLPRPRPRPAVDPRP,0.154
7,RRIRWRPPRLPRPRPRPLYHPRP,-0.307
8,RRIRCRPPRLPRPRPRPGEGPRP,-0.0346
9,RRIRSRPPRLPRPRPRPGTFPRP,0.0493
10,RRIRMRPPRLPRPRPRPQSRPRP,0.328
11,RRIRLRPPRLPRPRPRPIDMPRP,-0.184
12,RRIRNRPPRLPRPRPRPHWMPRP,-0.0835
13,RRIRHRPPRLPRPRPRPNVVPRP,0.015
14,RRIRVRPPRLPRPRPRPTDKPRP,-0.0288
15,RRIRDRPPRLPRPRPRPSHNPRP,-0.314
16,RRIRNRPPRLPRPRPRPQRSPRP,0.0667
17,RRIRWRPPRLPRPRPRPETIPRP,0.322
18,RRIRCRPPRLPRPRPRPNITPRP,-0.884
19,RRIRGRPPRLPRPRPRPSNGPRP,2.8
20,RRIRARPPRLPRPRPRPPTEPRP,1.2
